The values that follow come from patent US20260274955A1 (JANUX THERAPEUTICS, published 2026).

The target of assay [1] is T1, anti-CD28 Fab (SEQ ID NOs: 202, 203).
T1 construct: biotinylated and captured on neutravidin coated plates in the phage ELISA
Description: phage ELISA on captured Fab.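 Note: ELISA with clonal phage supernatants added to wells preincubated with CD28 antigen or with blocking buffer only, bound phage detected by HRP-conjugated anti-M13 antibody.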 For orientation: ELISA stands for enzyme-linked immunosorbent assay.
T1 sequence (VH, as listed by the source, chain 1 of 2): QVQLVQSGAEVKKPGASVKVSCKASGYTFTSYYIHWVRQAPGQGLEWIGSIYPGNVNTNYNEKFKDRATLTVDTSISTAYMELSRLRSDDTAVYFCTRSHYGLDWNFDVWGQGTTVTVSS
T1 sequence (VL, as listed by the source, chain 2 of 2): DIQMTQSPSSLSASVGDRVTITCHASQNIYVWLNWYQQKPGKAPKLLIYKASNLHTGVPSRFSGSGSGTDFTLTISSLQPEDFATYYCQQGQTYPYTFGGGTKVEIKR
Description: (§1) Clonal phage were harvested as crude supernatants and screened via standard ELISAs. […] Prior to the addition of clonal phage, wells were incubated with blocking buffer and CD28 antigen or blocking buffer alone. Without washing or aspirating, clonal phage supernatants were then added to the wells and incubated for a short time. Wells were then washed followed by detection of bound phage using a horse radish conjugated anti-M13 antibody.

Assay [2] shares this target. Description: phage ELISA on captured Fab, wells pre-incubated with CD28 antigen (competitor).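 Note: clonal phage ELISA with wells pretreated with CD28 plus blocking buffer before phage addition, bound phage detected by HRP-linked anti-M13 antibody, reference wells got blocking buffer only.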
Target sequence in this assay (VH, as listed by the source, chain 1 of 2): as the sequence (VH, as listed by the source, chain 1 of 2) above
Target sequence in this assay (VL, as listed by the source, chain 2 of 2): as the sequence (VL, as listed by the source, chain 2 of 2) above
Description: as §1
For assay [3], the target named is anti-CD28 Fab (SEQ ID NOs: 202, 203). Nature of the assay: phage ELISA, Fab on plate.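 Note: ELISA of crude clonal phage supernatants on the plate, wells preloaded with CD28 antigen or only blocking buffer, captured phage read out via HRP-linked anti-M13 antibody.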
Target sequence in this assay (VH, as listed by the source, chain 1 of 2): as the sequence (VH, as listed by the source, chain 1 of 2) above
Target sequence in this assay (VL, as listed by the source, chain 2 of 2): as the sequence (VL, as listed by the source, chain 2 of 2) above
Description: After panning, phage infected bacteria were plated out and colonies picked into 96 well blocks. Clonal phage was then amplified and separated from bacterial cells via centrifugation.
Clonal phage were harvested as crude supernatants and screened via standard ELISAs. […] Prior to the addition of clonal phage, wells were incubated with blocking buffer and CD28 antigen or blocking buffer alone. Without washing or aspirating, clonal phage supernatants were then added to the wells and incubated for a short time. Wells were then washed followed by detection of bound phage using a horse radish conjugated anti-M13 antibody. Clonal phage of interest were then sent for sequence analysis.

For the molecule YCDGHLPEYMNQCL (on phage, pIII fusion) [Phage-597], the “Anti-CD28 Fab (SEQ ID NOs: 202, 203) signal” value in assay [1] amounted to 1.44. In assay [2], the “Anti-CD28 Fab signal in the presence of CD28” value (shortened to “Anti-CD28 Fab signal … of CD28”) worked out at 0.07. As for RCAAGFHYSWPNCF [Phage-1134], the “Anti-CD28 Fab signal” value in assay [3] turned out to be 1.41.

Turning to TCSAGATYSWPACL [Phage-1137], the “Anti-CD28 Fab signal” value in assay [3] is 1.41. Same read-out and setting: the value for TCAAGAQFAWPLCL [Phage-1132] was 1.41. For the molecule YCDGHNFQYMEKCL (on phage, pIII fusion) [Phage-598], in assay [1], the “Anti-CD28 Fab (SEQ ID NOs: 202, 203) signal” value amounted to 1.44. Also, the “Anti-CD28 Fab signal … of CD28” value in assay [2] is 0.06. The corresponding values for YCDGHHKEYLLKCL (on phage, pIII fusion) [Phage-568] are 1.49 and 0.06. Consider RCSFRFITLAEACV [Phage-1130], for which the “Anti-CD28 Fab signal” value in assay [3] is 1.41.

As for YCEGHLPQYMTKCI (on phage, pIII fusion) [Phage-590], the “Anti-CD28 Fab (SEQ ID NOs: 202, 203) signal” value in assay [1] turned out to be 1.44. Moreover, the “Anti-CD28 Fab signal … of CD28” value in assay [2] came out at 0.08. As for TCSAGAHYEWPKCL [Phage-1202], the “Anti-CD28 Fab signal” value in assay [3] was found to be 1.12. For the molecule YCDGHAEEYMAKCL (on phage, pIII fusion) [Phage-588], the “Anti-CD28 Fab (SEQ ID NOs: 202, 203) signal” value in assay [1] was found to be 1.45. Further, in assay [2], the “Anti-CD28 Fab signal … of CD28” value is 0.06. The corresponding values for YCDGHLPIYQAKCL (on phage, pIII fusion) [Phage-571] are 1.49 and 0.1. As to LCAAGFMYEWPLCF [Phage-1143], in assay [3], the “Anti-CD28 Fab signal” value was determined as 1.4. Same read-out and setting: the same measure for TCAAGATYNWPWCF [Phage-1207]: 1.07; for LCSAGFLFQWSTCL [Phage-1133]: 1.41. Regarding YCEGHLAIYQKKCL (on phage, pIII fusion) [Phage-592], the “Anti-CD28 Fab (SEQ ID NOs: 202, 203) signal” value in assay [1] was determined as 1.44. For the same molecule, in assay [2], the “Anti-CD28 Fab signal … of CD28” value worked out at 0.06. As for TCAAGASWNWPACE [Phage-1138], in assay [3], the “Anti-CD28 Fab signal” value was determined as 1.41. Still for that read-out and setting: the same measure for TCAAGAHYEWPQCF [Phage-1206]: 1.08. For SCSAGASLQLSQCF [Phage-1129], in assay [3], the “Anti-CD28 Fab signal” value is 1.41. On the same count and under the same terms, the same measure for LCAAGAHYSWPACF [Phage-1139]: 1.41. Take YCEGHSQEYMAKCL (on phage, pIII fusion) [Phage-596]: the “Anti-CD28 Fab (SEQ ID NOs: 202, 203) signal” value in assay [1] came to 1.44. For the same molecule, the “Anti-CD28 Fab signal … of CD28” value in assay [2] was found to be 0.06.

Take YCDGHKAEYMQKCL (on phage, pIII fusion) [Phage-565]: the “Anti-CD28 Fab (SEQ ID NOs: 202, 203) signal” value in assay [1] came out at 1.5. The “Anti-CD28 Fab signal … of CD28” value in assay [2] is 0.06.

Regarding MCAAGAAWAWPLCL [Phage-1141], in assay [3], the “Anti-CD28 Fab signal” value was determined as 1.4.

With TCSAGAHYPWPICL [Phage-1131], in assay [3], the “Anti-CD28 Fab signal” value came out at 1.41. Regarding YCAGHLPQYIQKCL (on phage, pIII fusion) [Phage-591], in assay [1], the “Anti-CD28 Fab (SEQ ID NOs: 202, 203) signal” value stood at 1.44. Also, the “Anti-CD28 Fab signal … of CD28” value in assay [2] was 0.07. For the molecule YCDGHSEQYIAKCL (on phage, pIII fusion) [Phage-572], the “Anti-CD28 Fab (SEQ ID NOs: 202, 203) signal” value in assay [1] was determined as 1.49. For the same molecule, the “Anti-CD28 Fab signal … of CD28” value in assay [2] is 0.08. Taken in the same sequence, the figures for YCQGHIEPYLAKCL (on phage, pIII fusion) [Phage-586] were 1.46 and 0.05. For the molecule QCAAGATYPWPVCL [Phage-1200], in assay [3], the “Anti-CD28 Fab signal” value was 1.13. Regarding YCEGHIMQYMAQCL (on phage, pIII fusion) [Phage-570], the “Anti-CD28 Fab (SEQ ID NOs: 202, 203) signal” value in assay [1] was found to be 1.49. In assay [2], the “Anti-CD28 Fab signal … of CD28” value is 0.06. As for TCAAGANYAWPVCL [Phage-1205], in assay [3], the “Anti-CD28 Fab signal” value came to 1.09.

Take TCSAGATYTWPVCF [Phage-1201]: in assay [3], the “Anti-CD28 Fab signal” value was determined as 1.13. For TCSAGATYSWPLCF [Phage-1203], the “Anti-CD28 Fab signal” value in assay [3] amounted to 1.12. Same read-out and setting: the value for TCAAGATYSWPSCF [Phage-1204] was 1.1; that for GCAAGASYPWPACL [Phage-1135] was 1.41.

YCEGHAVEYMAKCL (on phage, pIII fusion) [Phage-593]: the “Anti-CD28 Fab (SEQ ID NOs: 202, 203) signal” value in assay [1] came to 1.44. Further, the “Anti-CD28 Fab signal … of CD28” value in assay [2] was 0.07.

For YCSGHLPQYLEKCL (on phage, pIII fusion) [Phage-567], the “Anti-CD28 Fab (SEQ ID NOs: 202, 203) signal” value in assay [1] is 1.5. Also, the “Anti-CD28 Fab signal … of CD28” value in assay [2] is 0.31. With YCDGHLAIYMWKCL (on phage, pIII fusion) [Phage-587], the “Anti-CD28 Fab (SEQ ID NOs: 202, 203) signal” value in assay [1] was determined as 1.45. The “Anti-CD28 Fab signal … of CD28” value in assay [2] was found to be 0.09. As for PCSAGVTYAWLYCV [Phage-1140], in assay [3], the “Anti-CD28 Fab signal” value was 1.41.

For the molecule TCAAGASYPWPLCV [Phage-1142], in assay [3], the “Anti-CD28 Fab signal” value was 1.4. On to PCAAGAMWPWPVCL [Phage-1136], for which, in assay [3], the “Anti-CD28 Fab signal” value came to 1.41. On to YCDGHLALHMKKCL (on phage, pIII fusion) [Phage-569], for which, in assay [1], the “Anti-CD28 Fab (SEQ ID NOs: 202, 203) signal” value was 1.49. In addition, in assay [2], the “Anti-CD28 Fab signal … of CD28” value turned out to be 0.08.
